The values below are quoted from earlier work in PMC5938170.

The Kd is the free concentration of one partner at which half of the binding sites on the other are occupied at equilibrium, for simple one-to-one binding.

One data set concerns the target EGFR (Homo sapiens) (UniProt P00533).
In another data set the target is Met (Homo sapiens) (UniProt P08581).
Chain of UniProt P08581 (P08581 25-932): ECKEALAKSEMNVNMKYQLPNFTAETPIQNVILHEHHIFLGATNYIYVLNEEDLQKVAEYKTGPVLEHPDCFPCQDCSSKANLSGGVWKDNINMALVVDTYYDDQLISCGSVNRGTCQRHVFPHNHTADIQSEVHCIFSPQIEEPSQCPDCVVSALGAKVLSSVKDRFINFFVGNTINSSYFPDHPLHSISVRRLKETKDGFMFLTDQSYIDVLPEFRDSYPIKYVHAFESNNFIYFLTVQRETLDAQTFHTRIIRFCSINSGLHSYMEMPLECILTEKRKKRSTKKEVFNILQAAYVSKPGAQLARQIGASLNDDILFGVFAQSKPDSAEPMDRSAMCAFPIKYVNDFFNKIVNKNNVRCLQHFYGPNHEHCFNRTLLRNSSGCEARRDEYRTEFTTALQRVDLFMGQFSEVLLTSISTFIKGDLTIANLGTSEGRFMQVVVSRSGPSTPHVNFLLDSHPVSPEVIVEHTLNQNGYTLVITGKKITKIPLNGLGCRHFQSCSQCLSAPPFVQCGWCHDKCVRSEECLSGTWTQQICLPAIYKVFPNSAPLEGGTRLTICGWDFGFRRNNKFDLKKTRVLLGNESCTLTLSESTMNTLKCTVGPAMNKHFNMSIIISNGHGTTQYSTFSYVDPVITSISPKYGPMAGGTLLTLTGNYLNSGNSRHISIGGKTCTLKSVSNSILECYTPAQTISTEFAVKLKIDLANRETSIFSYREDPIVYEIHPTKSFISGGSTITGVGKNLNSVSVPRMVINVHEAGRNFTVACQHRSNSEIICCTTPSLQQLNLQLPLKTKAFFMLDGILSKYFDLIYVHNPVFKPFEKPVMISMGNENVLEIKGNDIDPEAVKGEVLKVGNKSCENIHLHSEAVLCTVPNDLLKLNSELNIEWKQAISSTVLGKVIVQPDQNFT

Turning to Decorin (from UniProt P07585), the Kd with EGFR (Homo sapiens) was 75 nM; with Met (Homo sapiens) it was 2 nM.
